Source: patent US20220025021A1 (BETH ISRAEL DEACONESS MEDICAL CENTER, published 2022)

What was measured:
Experiment in all cases: cell-based or functional assay
[1] = target: HIV-1 Env of pseudovirus SC422661.8 (HIV-1)
[2] = target: HIV-1 Env of pseudovirus Du172.17 (HIV-1)
[3] = target: HIV-1 Env of pseudovirus 0260.v5.c36 (HIV-1)
[4] = target: HIV-1 Env of pseudovirus CNE52 (HIV-1)
[5] = target: HIV-1 Env of pseudovirus BB1012-11.TC21 (HIV-1)
[6] = target: HIV-1 Env of pseudovirus RHPA4259.7 (HIV-1)

Row | Binder | neutralization IC50 [1] [µg/mL] | neutralization IC80 [1] [µg/mL] | neutralization IC50 [2] [µg/mL] | neutralization IC80 [2] [µg/mL] | neutralization IC50 [3] [µg/mL] | neutralization IC80 [3] [µg/mL] | neutralization IC50 [4] [µg/mL] | neutralization IC80 [4] [µg/mL] | neutralization IC50 [5] [µg/mL] | neutralization IC80 [5] [µg/mL] | neutralization IC50 [6] [µg/mL] | neutralization IC80 [6] [µg/mL]
1 | MS-70 (antibody, V domains shown) VH: QVQLVQSGPEVRKPGTSVKVSCKAPGNTLKTYDLHWVRSVPGQGLQWMGWISHEGDKKVIVERFKAKVTIDWDRSTNTAYLQLSGLTSGDTAVYYCAKGSKHRLRDYALYDDDGALNWAVDVDYLSNLEFWGQGTAVTVSS VL: DFVLTQSPHSLSVTPGESASISCKSSHSLIHGDRNNYLAWYVQKPGQSPQLLIYLASSRASGVPDRFSGSGSDKDFTLKISRVETEDVGTYYCMQGRESPWTFGQGTKVDIKR | 0.391 | 2.43 | 1.49 | 6.05 | 0.028 | 0.103 | 0.301 | 2.55 | 0.021 | 0.079 | 0.182 | 0.734
2 | MS-75 (antibody, V domains shown) VH: QVQLVQSGPEVRKPGTSVKVSCKASGNTLKTYDLHWVRSVPGQGLQWMGWISHEGDKKVIVERFKAKVTIDWDRSTNTAYLQLSGLTSGDTAVYYCAKGSKHRLRDYALYDDDGALNWAVDVDYLSNLEFWGQGTAVTVSS VL: DFVLTQSPHSLSVTPGESASISCKSSHSLIHGDRNNYLAWYVQKPGRSPQLLIYLASSRASGVPDRFSGSGSDKDFTLKISRVETEDVGTYYCMQGRESPWTFGQGTKVDIKR | 0.489 | 9.41 | 3.56 | 16.1 | 0.034 | 0.137 | 0.687 | 7.55 | 0.029 | 0.134 | 0.276 | 1.31
3 | MS-76 (antibody, V domains shown) VH: QVQLVQSGPEVRKPGTSVKVSCKAPGYTLKTYDLHWVRSVPGQGLQWMGWISHEGDKKVIVERFKAKVTIDWDRSTNTAYLQLSGLTSGDTAVYYCAKGSKHRLRDYALYDDDGALNWAVDVDYLSNLEFWGQGTAVTVSS VL: DFVLTQSPHSLSVTPGESASISCKSSHSLIHGDRNNYLAWYVQKPGRSPQLLIYLASSRASGVPDRFSGSGSDKDFTLKISRVETEDVGTYYCMQGRESPWTFGQGTKVDIKR | 0.36 | 6.46 | 1.7 | 9.68 | 0.01 | 0.06 | 0.174 | 1.37 | 0.013 | 0.059 | 0.242 | 0.842
4 | MS-74 (antibody, V domains shown) VH: QVQLVQSGPEVRKPGTSVKVSCKAPGNTLKTYDLHWVRSVPGQGLQWMGWISHEGDKKVIVERFKAKVTIDWDRSTNTAYLQLSGLTSGDTAVYYCAKGSKHRLRDYALYDDDGALNWAVDVDYLSNLEFWGQGTAVTVSS VL: DFVLTQSPHSLSVTPGESASISCKSSHSLIHGDRNNYLAWYVQKPGRSPQLLIYLASSRASGVPDRFSGSGSDKDFTLKISRVETEDVGVYYCMQGRESPWTFGQGTKVDIKR | 0.388 | 3.51 | 1.46 | 5.57 | 0.017 | 0.086 | 0.169 | 1.46 | 0.021 | 0.093 | 0.132 | 0.461
5 | MS-78 (antibody, V domains shown) VH: QVQLVQSGPEVRKPGTSVKVSCKAPGNTLKTYDLHWVRSVPGQGLEWMGWISHEGDKKVIVERFKAKVTIDWDRSTNTAYLQLSGLTSGDTAVYYCAKGSKHRLRDYALYDDDGALNWAVDVDYLSNLEFWGQGTAVTVSS VL: DFVLTQSPHSLSVTPGESASISCKSSHSLIHGDRNNYLAWYVQKPGRSPQLLIYLASSRASGVPDRFSGSGSDKDFTLKISRVETEDVGTYYCMQGRESPWTFGQGTKVDIKR | 0.635 | 3.63 | 1.71 | 7 | 0.02 | 0.095 | 0.233 | 1.39 | 0.024 | 0.105 | 0.241 | 0.841
6 | MS-72 (antibody, V domains shown) VH: QVQLVQSGPEVRKPGTSVKVSCKAPGNTLKTYDLHWVRSVPGQGLQWMGWISHEGDKKVIVERFKAKVTIDWDRSTNTAYLQLSGLTSGDTAVYYCAKGSKHRLRDYALYDDDGALNWAVDVDYLSNLEFWGQGTAVTVSS VL: DFVLTQSPHSLSVTPGESASISCKSSHSLIHGDRNNYLAWYVQKPGRSPQLLIYLASSRASGVPDRFSGSGSDTDFTLKISRVETEDVGTYYCMQGRESPWTFGQGTKVDIKR | 0.373 | 2.83 | 1.75 | 8.76 | 0.023 | 0.114 | 0.302 | 4.53 | 0.023 | 0.089 | 0.247 | 1.16
7 | MS-77 (antibody, V domains shown) VH: QVQLVQSGPEVRKPGTSVKVSCKAPGNTFKTYDLHWVRSVPGQGLQWMGWISHEGDKKVIVERFKAKVTIDWDRSTNTAYLQLSGLTSGDTAVYYCAKGSKHRLRDYALYDDDGALNWAVDVDYLSNLEFWGQGTAVTVSS VL: DFVLTQSPHSLSVTPGESASISCKSSHSLIHGDRNNYLAWYVQKPGRSPQLLIYLASSRASGVPDRFSGSGSDKDFTLKISRVETEDVGTYYCMQGRESPWTFGQGTKVDIKR | 0.373 | 3.59 | 2.23 | 12.2 | 0.019 | 0.101 | 0.322 | 2.71 | 0.023 | 0.103 | 0.209 | 0.734
8 | MS-68 (antibody) VH: not shown VL: DFVLTQSPHSLPVTPGESASISCKSSHSLIHGDRNNYLAWYVQKPGRSPQLLIYLASSRASGVPDRFSGSGSDKDFTLKISRVETEDVGTYYCMQGRESPWTFGQGTKVDIKRTVAAPSVFIFPPSDEQLKSGTASVVCLLNNFYPREAKVQWKVDNALQSGNSQESVTEQDSKDSTYSLSSTLTLSKADYEKHKVYACEVTHQGLSSPVTKSFNRGEC | 0.538 | 2.02 | 1.82 | 6.8 | 0.019 | 0.073 | 0.136 | 1.13 | 0.023 | 0.076 | 0.199 | 0.759
9 | MS-73 (antibody) VH: not shown VL: DFVLTQSPHSLSVTPGESASISCKSSHSLIHGDRNNYLAWYVQKPGRSPQLLIYLASSRASGVPDRFSGSGSDKDFTLKISRVEAEDVGTYYCMQGRESPWTFGQGTKVDIKRTVAAPSVFIFPPSDEQLKSGTASVVCLLNNFYPREAKVQWKVDNALQSGNSQESVTEQDSKDSTYSLSSTLTLSKADYEKHKVYACEVTHQGLSSPVTKSFNRGEC | 0.384 | 2.54 | 0.934 | 5 | 0.018 | 0.065 | 0.207 | 1.81 | 0.023 | 0.086 | 0.094 | 0.549
10 | MS-71 (antibody) VH: not shown VL: DFVLTQSPHSLSVTPGESASISCKSSHSLIHGDRNNYLAWYVQKPGRSPQLLIYLASSRASGVPDRFSGSGSGKDFTLKISRVETEDVGTYYCMQGRESPWTFGQGTKVDIKRTVAAPSVFIFPPSDEQLKSGTASVVCLLNNFYPREAKVQWKVDNALQSGNSQESVTEQDSKDSTYSLSSTLTLSKADYEKHKVYACEVTHQGLSSPVTKSFNRGEC | 0.273 | 1.94 | 1.29 | 6.07 | 0.022 | 0.062 | 0.172 | 2.59 | 0.015 | 0.054 | 0.164 | 0.583
11 | MS-69 (antibody) VH: not shown VL: DFVLTQSPHSLSVTPGEPASISCKSSHSLIHGDRNNYLAWYVQKPGRSPQLLIYLASSRASGVPDRFSGSGSDKDFTLKISRVETEDVGTYYCMQGRESPWTFGQGTKVDIKRTVAAPSVFIFPPSDEQLKSGTASVVCLLNNFYPREAKVQWKVDNALQSGNSQESVTEQDSKDSTYSLSSTLTLSKADYEKHKVYACEVTHQGLSSPVTKSFNRGEC | 0.609 | 3.37 | 1.4 | 5.6 | 0.021 | 0.078 | 0.129 | 1.9 | 0.018 | 0.071 | 0.139 | 0.811
